Experimental findings from PMC6978647 are described below.

The target of test [1] is aeBlue chromoprotein (Actinia equina). The test is described as follows: SEC. Background: Size exclusion chromatography separates by hydrodynamic size, large species first.
Test [2] shares this target. The test is described as follows: SEC. The source holds these as a separate data set.

Like-named read-outs stand apart in the source and are kept apart here.

In general, stoichiometry N refers to the number of molecules, sites or subunits per partner or assembly. As for aeBlue chromoprotein (natural protein), the stoichiometry N in test [1] amounted to 3.84 subunits; in test [2], 4.45 subunits.
